Measurements as given in US10865391B2, “Glutamate dehydrogenase mutants and their application in preparation of L-phosphinothricin” (ZHEJIANG UNIVERSITY, priority 2018, dated 2020).

Assay: Standard enzyme activity measurement toward PPO, crude enzyme (per volume fermentation broth)
Format: biochemical
Conditions: toward PPO; for Fold change: enzyme activity of mutant versus wild type
Description: The preserved recombinant E. coli is streaked onto the plate for activation. Single colonies are picked and inoculated into 5 mL LB liquid medium containing 50 μg/mL kanamycin and cultured at 37° C. for 12 h. The culture is transferred to 50 mL fresh LB liquid medium containing 50 μg/mL kanamycin at a 2% inoculum, and then incubated at 37° C. until the OD600 reaches 0.6; after that, add IPTG to a final concentration of 0.5 mM, and then proceed with induction culture under the temperature of 18° C. for 16 h.
After the cultivation, the culture is centrifuged at 10000 rpm for 10 min; discard supernatant, and collect cells. The harvested cells are washed for 2 times using pH 7.5 50 mM phosphate buffer. After that, the cells are re-suspend into the pH 7.5 phosphate buffer and disrupted ultrasonically (400W for 30 times, Ultrasonic time is 3 s, and the interval is 7 s). The cell disrupted solution is centrifuged at 12000 g for 5 min at 4° C. to remove the precipitate, and the supernatant obtained is the crude enzyme containing recombinant glutamate dehydrogenase
The standard enzyme activity measurement system: Appropriate amount of enzyme, 100 mM substrate, 10 mM coenzyme (NADH or NADPH), 500 mM NH4^+ ((NH4)2SO4); total system volume is up to 400 μL; reaction medium is pH 7.5 phosphate buffer. 35° C. reaction for 10 min; after that, add 40 uL 5 M NaOH to terminate reaction.
Definition of enzyme activity unit: The quantity of enzyme as required by generation of 1 μmol L-phosphinothricin per minute under standard reaction conditions.
Proceed with induction culture of constructed mutants, and prepare crude enzyme solution.

[1] = crude enzyme, standard system, N.D. = no detectable activity

B1: GsGluDH-A153G: GsGluDH mutant A153G, SEQ ID NO. 9 (protein)
chain: MAADKHTEEKGQQDDVLASTQIVIHRALEKLGYPEEVYELLKEPIRVLTVRIPVRMDDGSVKIFTGYRAQHNDAVGPTKGGVRFHPDVTEREVKALSIWMSLKCGIVDLPYGGGKGGIVCDPRTMSFRELERLSRGYVRAISQIVGPTKDIPGPDVFTNSQIMAWMMDEYSRIREFDSPGFITGKPLVLGGSHGRETATAKGVTICIREAAKKRGLSLEGARVVVQGFGNAGSYLAKFLHDAGAKVVGISDVYGALYDPNGLDIDYLLERRDSFGTVTKLFKNTISNKELLELDCDILVPAAIENQITAENAPRIKASIVVEAANGPTTLEATEILTQRGILLVPDVLASAGGVTVSYFEWVQNNQGYYWTEEEVEQRLEKVMVKAFNNVYEMAQTRRVDMRLAAYMVGVRKMAEACRFRGWV
modifications: Geobacillus stearothermophilus glutamate dehydrogenase mutant
In the case of B1, the “Enzyme activity of mutants (U/mL)” value [1] is reported as 0.04 U/mL.

B2: BmGluDH-A156G: BmGluDH mutant A156G, SEQ ID NO. 13 (protein)
chain: MVADKMQDSKNSQEEKHDVLKSTQTVIHKALEKLGYPDEVYELLKEPLRMMTVKIPVRMDDGSVKIFTGHRAQHNDAVGPTKGGIRFHPNVTEKEVKALSIWMSLKCGIVDLPYGGGKGGIVCDPRNMSFGELERLSRGYVRAISQIVGPTKDIPGPDVFTNSQIMAWMMDEYSRIDEFNSPGFITGKPLVLGGSHGRETATAKGVTICIREAAKKRGIELQGARVVVQGFGNAGSFLAKFMHDAGAKIVGISDAYGALHDPNGLDIDYLLDRRDSFGTVTKLFNNTISNKELLELDCDILVPAAIENQITEENAHNIQASIVVEAANGPTTLEATRILSERGILLVPDVLASAGGVTVSYFEWVQNNQGYYWTEEEVEEKLEKVMVKSFNNIYETSTTRKVDMRLAAYMIGVRKMAEGSRFRGWI
modifications: Bacillus megaterium glutamate dehydrogenase mutant
With B2 the “Enzyme activity of mutants (U/mL)” value [1] was 0.34 U/mL.

B3: BsGluDH-A154G: BsGluDH mutant A154G, SEQ ID NO. 11 (protein)
chain: MSAKQVSKDEEKEALNLFLSTQTIIKEALRKLGYPGDMYELMKEPQRMLTVRIPVKMDNGSVKVFTGYRSQHNDAVGPTKGGVRFHPEVNEEEVKALSIWMTLKCGIANLPYGGGKGGIICDPRTMSFGELERLSRGYVRAISQIVGPTKDIPGPDVYTNSQIMAWMMDEYSRLREFDSPGFITGKPLVLGGSQGRETATAQGVTICIEEAVKKKGIKLQNARIIIQGFGNAGSFLAKFMHDAGAKVIGISDANGGLYNPDGLDIPYLLDKRDSFGMVTNLFTDVITNEELLEKDCDILVPAAISNQITAKNAHNIQASIVVEAANGPTTIDATKILNERGVLLVPDILASAGGVTVSYFEWVQNNQGYYWSEEEVAEKLRSVMVSSFETIYQTAATHKVDMRLAAYMTGIRKSAEASRFRGWV
modifications: Bacillus subtilis glutamate dehydrogenase mutant
With B3 the “Enzyme activity of mutants (U/mL)” value [1] was 0.50 U/mL.

B4: LsGluDH-A144G: LsGluDH mutant A144G, SEQ ID NO. 15 (protein)
chain: MSENLNLFTSTQDVIQDALNKLGYDEAMYELLKEPLRMLQVRIPVKMDDGTTKVFTGYRAQHNDAVGPTKGGVRFHPQVSEEEVKALSMWMTLKCGIVDLPYGGGKGGVICDPRQMSMGEIERLSRGYVRAVSQIVGPTKDIPGPDVFTNAQIMAWMMDEYSRMDEFNSPGFITGKPLVLGGSQGRDRATAQGVTIVIEEAAKKRGIDIKGARVVIQGFGNAGSFLAKFMHDLGAKVIGISDAYGALHDPEGLDIDYLLDRRDSFGTVTTLFENTISNKELLELDCDILVPAAIENQITADNAHNIKADIVVEAANGPTTAEATKILTERGILLVPDVLASAGGVTVSYFEWVQNNQGYYWTEEEVEERLYKKMVEAFDNVYTTATTRNINMRLAAYMVGVRRTAEASRFRGWV
modifications: Lysinibacillus sphaericus glutamate dehydrogenase mutant
With B4 the “Enzyme activity of mutants (U/mL)” value [1] was 1.69 U/mL.

B5: LsGluDHp-V386A: LsGluDHp mutant V386A, SEQ ID NO. 8 (protein)
chain: MTITTVSNEQLAKEYVDGVFEQLKQQNCHQAEFLQAAEEIFISLVPVFVQHPEYIKANILSRIVEPDRIISFRVAWQDDHNQVQVNRGYRVQYSNVMGPYKGGLRFHPSVNESIIKFLGFEQIFKNALTGQPIGGGKGGSNFDPKGKSDSEIMRFCQAFMTELYRHIGPDVDVPAGDIGVGAREVGYLWGQYKRLTKASESGVLTGKTPGYGGSLARKEATGYGTVYFVNEMLKDVNDSFEGKTVVVSGSGNVSTYAIEKAQQYGAKVVACSDSSGYIYDPEGLDLDVIKEIKEVKGDRISTYVSYRPNATFTNGCTGIWTIPCDIALPCATQNEINGESARTLISNGVKAIGEGANMPSDLEAINEFLNAGVLFGPAKAANAGGAAVSALEMAQDSSRVFWSFEEVDAKLHQIMKDIYSDSKAAAEKYGFPGNLVMGANIAGFIKVADGMLTEGIY
modifications: Lysinibacillus sphaericus glutamate dehydrogenase mutant
For B5, the Fold change was 588 and the “Enzyme activity of mutants (U/mL)” value [1] was 12.34 U/mL.

B6: PeGluDH-V375A: PeGluDH mutant V375A, SEQ ID NO. 6 (protein)
chain: MIESVDHFLARLQQRDPAQPEFHQAVEEVLRSLWPFLEQNPHYLEAGILERMVEPERAVLFRVSWVDDQGKVQVNRGYRIQMSSAIGPYKGGLRFHPSVNLGVLKFLAFEQVFKNSLTSLPMGGGKGGSDFDPKGKSDAEVMRFCQAFMSELYRHIGADLDVPAGDIGVGAREIGFLFGQYKRLANQFTSVLTGKGMTYGGSLIRPEATGYGCVYFAEEMLKRQEQRIDGRRVAISGSGNVAQYAARKVMDLGGKVISLSDSEGTLFCEAGLTDEQWDALMELKNVKRGRISELAGRFGLEFRKGQTPWSLACDIALPCATQNELNADDARTLLRNGCICVAEGANMPTTLDAVDIFIEAGILYAPGKASNAGGAAVSGLEMSQNAMRLLWTAGEVDSKLHHIMQSIHHVCVHYGEEADGRINYVKGANIAGFVKVADAMLAQGVV
modifications: Pseudomonas entomophila glutamate dehydrogenase mutant
For B6, the Fold change was 107 and the “Enzyme activity of mutants (U/mL)” value [1] was 11.06 U/mL.

B7: CgGluDH: wild type glutamate dehydrogenase from Corynebacterium glutamicum, NP_601279.1, NADPH-specific (protein, UniProt P31026 1-447, looked up)
NADP-specific glutamate …: MTVDEQVSNYYDMLLKRNAGEPEFHQAVAEVLESLKIVLEKDPHYADYGLIQRLCEPERQLIFRVPWVDDQGQVHVNRGFRVQFNSALGPYKGGLRFHPSVNLGIVKFLGFEQIFKNSLTGLPIGGGKGGSDFDPKGKSDLEIMRFCQSFMTELHRHIGEYRDVPAGDIGVGGREIGYLFGHYRRMANQHESGVLTGKGLTWGGSLVRTEATGYGCVYFVSEMIKAKGESISGQKIIVSGSGNVATYAIEKAQELGATVIGFSDSSGWVHTPNGVDVAKLREIKEVRRARVSVYADEVEGATYHTDGSIWDLKCDIALPCATQNELNGENAKTLADNGCRFVAEGANMPSTPEAVEVFRERDIRFGPGKAANAGGVATSALEMQQNASRDSWSFEYTDERLQVIMKNIFKTCAETAAEYGHENDYVVGANIAGFKKVADAMLAQGVI
With B7 the “Enzyme activity of wild type (U/mL)” value [1] was 0.011 U/mL.
